Assay results as given in the Human Domainome abundance scans (Beltran et al. 2025).
± gives the uncertainty stated by the source.

B1: TGF-beta-activated kinase 1 and MAP3K7-binding protein 3, residues 12 to 50; numbered along this chain, Q8N5C8 (parent)
chain: VLHDLRQRFPEIPEGVVSQCMLQNNNNLEACCRALSQES

Variants of: B1
Test: abundance fitness (aPCA) (normalised: wild type 0, dead -1); higher = more abundant; growth selection in yeast, the domain comes from the species named
Details: Homo sapiens

Abundance fitness of substitutions, site by site:
E11: M -0.213 ± 0.046; V -0.726 ± 0.099; F -0.479 ± 0.13; L -0.416 ± 0.067; N -0.115 ± 0.1; W -0.126 ± 0.05; G -0.13 ± 0.041; D 0.111 ± 0.069; T -0.214 ± 0.057; H -0.11 ± 0.11; R -0.444 ± 0.046; A -0.511 ± 0.064; Y -0.324 ± 0.16; S -0.189 ± 0.05; Q -0.166 ± 0.06; P -0.764 ± 0.31; K -0.535 ± 0.41
P13: G -0.666 ± 0.046; M -0.517 ± 0.085; W -0.771 ± 0.088; A -0.513 ± 0.055; H -0.694 ± 0.14; S -0.42 ± 0.051; I -0.452 ± 0.33; D -0.22 ± 0.074; V -0.774 ± 0.06; Q -0.62 ± 0.15; K -0.51 ± 0.086; R -0.782 ± 0.063; C -0.766 ± 0.082; T -0.767 ± 0.092; Y -0.926 ± 0.48
A30: W -0.794 ± 0.1; E -0.081 ± 0.045; N -0.174 ± 0.25; K -0.214 ± 0.072; V -0.55 ± 0.065; H -0.248 ± 0.17; P -0.716 ± 0.14; C -0.684 ± 0.25; I -0.838 ± 0.18; S -0.402 ± 0.075; T -0.568 ± 0.083; Q -0.178 ± 0.07; R -0.348 ± 0.043; G -0.599 ± 0.047; M -0.178 ± 0.054
E29: L -0.201 ± 0.2; V -0.895 ± 0.48
C20: S -0.103 ± 0.043; H -0.576 ± 0.28; Q -0.175 ± 0.07; T 0.063 ± 0.087; F -0.096 ± 0.095; Y 0.007 ± 0.28; G -0.26 ± 0.039; W -0.37 ± 0.075; I 0.109 ± 0.14; A 0.173 ± 0.042; L -0.06 ± 0.044; R -0.405 ± 0.056; D 0.048 ± 0.16; M 0.028 ± 0.082; P -0.51 ± 0.13; E -0.082 ± 0.053
E14: M -0.377 ± 0.11; D -0.308 ± 0.1; H 0.117 ± 0.19; K -0.831 ± 0.13; N -0.738 ± 0.14; R -0.668 ± 0.052; F -1.02 ± 0.3; V -0.24 ± 0.036; T -0.549 ± 0.093; Y -0.256 ± 0.18; S -0.416 ± 0.044; I -0.246 ± 0.064; Q -0.255 ± 0.062; G -0.829 ± 0.066; C -0.613 ± 0.1; L -0.142 ± 0.041; P -0.143 ± 0.072
N26: L -0.685 ± 0.097; W -0.808 ± 0.15; H -0.316 ± 0.12; G -0.144 ± 0.04; A -0.498 ± 0.049; F 0.164 ± 0.25; M -0.317 ± 0.088; P -1.32 ± 0.45; K -0.799 ± 0.2; V -0.816 ± 0.088; R -0.746 ± 0.057; C -0.365 ± 0.092; S -0.289 ± 0.053; E -0.475 ± 0.062; D -0.435 ± 0.12
G15: A 0.153 ± 0.051; Y 0.139 ± 0.065; I -0.154 ± 0.24; D 0.217 ± 0.058; M -0.079 ± 0.06; R 0.074 ± 0.037; N 0.05 ± 0.059; P 0.003 ± 0.049; H 0.25 ± 0.081; C 0.03 ± 0.044; W 0.087 ± 0.039; K 0.135 ± 0.056; V -0.016 ± 0.037; L -0.162 ± 0.041; F -0.138 ± 0.083; S 0.122 ± 0.041; E 0.281 ± 0.045
N25: T -0.788 ± 0.091; M -0.548 ± 0.086; R -0.39 ± 0.045; C -0.5 ± 0.099; S -0.365 ± 0.051; G -0.108 ± 0.038; W -0.819 ± 0.098; D -0.015 ± 0.082; A -0.425 ± 0.054; P -0.615 ± 0.15; Q -0.306 ± 0.075; V -0.904 ± 0.095
L22: C -0.377 ± 0.079; A 0.173 ± 0.039; R 0.152 ± 0.041; G -0.266 ± 0.039; M 0.041 ± 0.056; T 0.026 ± 0.054; F -0.188 ± 0.06; E 0.164 ± 0.055; V 0.012 ± 0.058; Y -0.213 ± 0.1; H 0.023 ± 0.055; Q 0.057 ± 0.067; K 0.264 ± 0.068; S -0.045 ± 0.044; D -0.06 ± 0.073; W -0.292 ± 0.045
V17: Q -0.81 ± 0.14; H -0.7 ± 0.21; L 0.084 ± 0.042; A -0.647 ± 0.065; M -0.395 ± 0.15; T -1.07 ± 0.2; S -0.815 ± 0.093; C -0.566 ± 0.1; K -0.955 ± 0.14; N -0.468 ± 0.46; Y -0.811 ± 0.13; P -0.568 ± 0.14; F -0.65 ± 0.26; D -0.624 ± 0.11; R -0.836 ± 0.059; I 0.266 ± 0.056; G -0.795 ± 0.055
S18: V 0.218 ± 0.039; D -0.434 ± 0.081; C -0.336 ± 0.092; I -0.035 ± 0.092; T 0.136 ± 0.043; M 0.222 ± 0.045; P -0.939 ± 0.13; Q 0.268 ± 0.043; F -0.17 ± 0.089; L 0.23 ± 0.04; R 0.345 ± 0.035; Y -0.196 ± 0.19; E 0.191 ± 0.041; G -0.399 ± 0.038; H 0.177 ± 0.086; A 0.13 ± 0.039; K 0.278 ± 0.056
M21: F -0.487 ± 0.093; E -0.695 ± 0.074; V -0.349 ± 0.054; L -0.015 ± 0.043; T -1.17 ± 0.3; G -0.811 ± 0.072; Q -0.937 ± 0.12; R -0.872 ± 0.065; H -0.82 ± 0.19; P -0.68 ± 0.26; Y -0.189 ± 0.18; A -0.347 ± 0.051; W -0.732 ± 0.11; S -0.718 ± 0.079; D -0.691 ± 0.14
Q19: E 0.128 ± 0.045; H -0.175 ± 0.12; S -0.039 ± 0.045; K 0.139 ± 0.049; N -0.019 ± 0.1; I 0.384 ± 0.15; L -0.1 ± 0.049; V -0.273 ± 0.047; Y -0.345 ± 0.086; P -0.547 ± 0.18; T -0.077 ± 0.059; W -0.135 ± 0.052; M -0.004 ± 0.07; A 0.186 ± 0.04; R 0.135 ± 0.037; C -0.114 ± 0.14
L28: G -0.605 ± 0.048; T -0.684 ± 0.2; W 0.007 ± 0.042; S -0.629 ± 0.09; Q -0.527 ± 0.1; H -0.285 ± 0.097; M -0.262 ± 0.076; V -0.221 ± 0.043; A -0.484 ± 0.05; P -0.313 ± 0.085; R -0.437 ± 0.047; D -0.829 ± 0.31; E -0.471 ± 0.1; C -0.587 ± 0.37
N24: V -0.894 ± 0.073; E -0.329 ± 0.062; A -0.747 ± 0.061; P -0.989 ± 0.11; G -0.878 ± 0.059; L -0.73 ± 0.07; H 0.178 ± 0.077; R -1.08 ± 0.086; C -0.351 ± 0.054; M -0.679 ± 0.096; W -0.638 ± 0.055; Q -0.623 ± 0.12; S -0.848 ± 0.09; T -0.871 ± 0.093; K -0.843 ± 0.23
P10: V -0.921 ± 0.076; A -0.943 ± 0.098; L -1.16 ± 0.32; S -0.595 ± 0.11; G -0.78 ± 0.066; Q -0.956 ± 0.22; K -1.07 ± 0.17; W -0.962 ± 0.17; D -0.672 ± 0.15; M -0.806 ± 0.39; T -0.906 ± 0.17; E -0.758 ± 0.064; R -0.96 ± 0.12
F9: Y -0.04 ± 0.26
N27: R -0.607 ± 0.054; W -0.835 ± 0.23; K -0.651 ± 0.11; L -1.12 ± 0.14; G -0.78 ± 0.073; H -0.605 ± 0.26; S -0.478 ± 0.09; Q -0.398 ± 0.12; C -0.831 ± 0.26; P -0.856 ± 0.18; V -0.764 ± 0.08; T -1.01 ± 0.22; A -0.643 ± 0.079
C31: E -0.467 ± 0.076; A -0.551 ± 0.072; Y -0.895 ± 0.48; M -0.732 ± 0.3; G -0.555 ± 0.051; K -0.513 ± 0.11; R -0.79 ± 0.072; I -0.718 ± 0.27; T -0.219 ± 0.061; L -0.914 ± 0.17; Q -0.786 ± 0.24; P -0.64 ± 0.13; W -0.965 ± 0.21; V -0.495 ± 0.065; S -0.545 ± 0.068; D 0.122 ± 0.26
Q23: K -0.189 ± 0.1; N -0.046 ± 0.1; D 0.271 ± 0.083; S -0.206 ± 0.052; V -0.167 ± 0.043; M -0.105 ± 0.059; A 0.107 ± 0.041; I -0.649 ± 0.24; E 0.215 ± 0.048; R -0.06 ± 0.04; T -0.275 ± 0.077; P -0.787 ± 0.1; L -0.108 ± 0.05; H 0.168 ± 0.14; G -0.722 ± 0.058
V16: C -0.638 ± 0.11; E -0.105 ± 0.056; K -0.114 ± 0.066; A -0.297 ± 0.046; Q -0.155 ± 0.053; R 0.032 ± 0.038; N -0.552 ± 0.14; P -0.927 ± 0.17; W -0.683 ± 0.061; M -0.073 ± 0.052; D -0.264 ± 0.069; Y 0.122 ± 0.32; T -0.16 ± 0.073; G -0.711 ± 0.059; L -0.228 ± 0.04; F -0.71 ± 0.14; H -0.372 ± 0.2; S -0.58 ± 0.074
I12: C -0.467 ± 0.078; D -1.04 ± 0.24; A -0.533 ± 0.068; H -0.209 ± 0.17; V -0.042 ± 0.042; R -0.788 ± 0.077; G -0.981 ± 0.091; W -0.737 ± 0.11; E -0.619 ± 0.076; L -0.094 ± 0.046; S -0.825 ± 0.12; K -0.577 ± 0.082; M -0.12 ± 0.059; Q -0.43 ± 0.073; T -0.276 ± 0.15
C32: F -0.579 ± 0.17; D -0.484 ± 0.069; L -0.291 ± 0.071; A -0.21 ± 0.045; E -0.176 ± 0.057; H -0.171 ± 0.15; G -0.575 ± 0.053
